Assay results as given in a protein production outcome set (Wang et al. 2014).

Assay: label from the status in PepcDB records

With “MKNLFLTSSFKDVVPLFTEFESNLQGKTVTFIPTASTVEEVTFYVEAGKKALESLGLLVEELDIATESLGEITTKLRKNDFIYVTGGNTFFLLQELKRTGADKLILEEIAAGKLYIGESAGAVITSPNIAYIQTMDSTKKAVNLTNYDALNLVDFSTLPHYNNTPFKEITQKIVTEYAGKSQIYPISNHEAIFIRGKEVITKRLS” the protein production was “failed”.
For “MAEITEKVLKKPNAIPDVFERKGGSAPTATHYCAGCGHGIIHKLMAEAIDELEIQDRCVLISPVGCAVFAYYYFDCGNIQVAHGRAPAVGTGVSRAEDNAIVMSYQGDGDLASIGLNETIQAANRGEKMAVFFVNNTVYGMTGGQMAPTTLIGEKTVTCQTGRDPRFAGYPIHMCELLSSLKAPVFIERVSVSDIAHIRKAKRAIKKALEIQRDGKGYAFVEILSPCPTNLRQDANAAQKFINEEMEKEFPLQNFRDRSAEVETLNRGESDFSKECLDNIFEVNSKGAEDPSEDLSFEEKLVKIAGFGGQGVLSMGLTLAEAACRDQKYVSWYPSYGPEQRGGTSNCSVIISGHEIGSPVVYSPGVLIALNKPSLENFAKDVKTGGTIIYDENIGDFEIPNGVTAIKVPASKIATEMGVSRAANTVMLGVLSALGYTGLSESVFVGAIEQTFSKKPKLIPINVEILNAGISWAKENLAL”, the protein production was “failed”.
With “MNEKVYYFIKSYDDSLPMPPAESFGQILNETYLHPFDWSARTTRKSYWWSVLINFILSILCIVLGFYAFNKNINPGIRVIDAVVAIVVYLWVFLAGLGQMVRRLHDVGYSGYWYWSTFTGYGTMFLFYLALQPSAQRKVKWGKYLFSDQDYPEGKKEKVPVPTIGQILKEHFFDCFNWDARSTRTSFWVGTAINQVVMVIGVLACYLIAFLLFLPFRVTGLNSDDSKVIAVFFIIFLIFFAAVTIWAFLAQLGHTVRRLHDAGFNGGWWWLSVIPYVGQLLLAFLLFHPTVKNEVKWNKYLFDPEDRIR” the protein production was “failed”.
With “MMQIDSIEIGGKVYQFFKSDLGNAPLLFIKGSKGYAMCGYLNMETSNKVGDIAVRVMGVKTLDDMLSAKVVEASQEAQKVGINPGDVLRNVIDKL” the protein production was “not failed”.
For “RDKYYLITHGSQDPYWTSLFQGAKKAAEELKVDLQILAPPGANDVPKQVQFIESALATYPSGIATTIPSDTAFSKSLQRANKLNIPVIAVDTRPKDKTKNPYLVFLGSDNLLAGKKLGEKALELTPSAKRALVLNPQPGHIGLEKRAYGIKTILQDKGIFFEELDVGTDPNQVQSRVKSYFKIHPETNIIFCLTSQALDPLGQMLLHPDRYDFNYQPQVYSFDKTPNTVSLIHKKLVNYVMDQQPFLMGYLSITQLVLMNRYQLNPVNINTAM”, the protein production was “not failed”.
In the case of “MKSRTSELAAGIFVIIFGVALFFLAMKVSGLAGTNLSDPYTMTAQFDNVNGLKPRAKVTMSGVTIGRVDAITLDPVTRLATVTFDLDGKLTTFNAKQLKTVEQNALEELHYSSDYKSAEPAKQKVMEQQLIDNMKSITSIDEDAYIMVSTNGLLGEKYLKIVPGGGLNYLKRGDAITNTQGTMDLEDLISKFITGGAGKSSDNSTGTAAQSSSSEDKEPSFTELEHHHHHH”, the protein production is reported as “failed”.
For “MKMLNRLDLGVPCLRAGFAGEQAFFLAMDGRLHVQQGDQRRVVALHDGDVLSACAAPGQADAAAWLLSAGEDGRVMRAGAGEPDCVASVPNKWVTALAVAADGALAYASGRTVWLAGGGGEAAALPQERPVQALRFSHGGRWLAVAGYDGLALYDRQAGGEPQRLDWKGMPTRVAFSPDDRFVLVATRDAVLHGWRLDTLRHFRMVGYPRAVGSWSWLAGGQWLATDGSAGAVLWPFEGEEGPIGSTPLALGERPDGEVSAVACHPARPWVAVGYADGLMVLESTDGALRRILGQAGRDRVACLAWDRAGARLAYGTPSGACGVIQADTGEEG”, the protein production was “failed”.
With “MKTFEVMIQTDSKGYLDAKFGGNAPKAFLNSNGLPTYSPKISWQKVEGAQSYALELIDHDAQKVCGMPFVHWVVGNIAHNVLEENASMMDKRIVQGVNSLTQGFIRSPLNESEKQRSNLNNSVYIGPMPPNGDHHYLIQVYALDIPKLALKAPFFLGDLHDKMRNHIIAIGRKEFLYKQFVRK” the protein production was “not failed”.
With “MRGPFMGFSIEFGEANLDKLGVRRTSERVSQPPLTLKNYALSRSIGRGNTSDVRLATGPDGREVAIKLPLPATLRQHDAAERFGNEVRLTLQFRHPHVVRGFAGTPFGPGAFLALFYYPDGPLSNRLRGQPLPNEEALRILADIAAALAYLHRLGAVHQDVKPQNVYVSGGRAALGDLGSAYFVAQGSKTSGSPYYMAPEVYHGESTSSASDVYSLGVMAWELLTGARPFSGNSYEELMVAHLSRFPAPLASLRPELPRALSRLLDRTFAKRPHERPTADALRRALLEALGETPQEEDLPAEEVPLASQQAGRHTAAPRVTGPQGPAETPAQPERVRPARRGWNPFRRKG” the protein production was “failed”.
